Laboratory results as given in US20240092890A1 (JUNTENDO EDUCATIONAL FOUNDATION, published 2024).

T1: Ins 5 type mutant CALR protein on UT-7/TPO CALR Ins 5 cells (UniProt P27797 18-417)
T1 sequence (looked up): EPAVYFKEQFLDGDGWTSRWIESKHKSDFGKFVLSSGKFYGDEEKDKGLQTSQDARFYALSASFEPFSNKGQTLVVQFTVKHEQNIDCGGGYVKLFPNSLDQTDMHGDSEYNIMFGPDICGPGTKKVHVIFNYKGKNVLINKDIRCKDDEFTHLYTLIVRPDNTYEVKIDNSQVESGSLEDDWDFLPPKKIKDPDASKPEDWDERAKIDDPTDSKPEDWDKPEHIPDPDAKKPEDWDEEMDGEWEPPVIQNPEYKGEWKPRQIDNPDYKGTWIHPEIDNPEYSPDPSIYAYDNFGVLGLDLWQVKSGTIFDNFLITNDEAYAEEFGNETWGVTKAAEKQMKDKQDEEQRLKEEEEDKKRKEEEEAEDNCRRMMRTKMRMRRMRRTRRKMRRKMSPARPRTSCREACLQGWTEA

T2: protein having an Fc region and a His-tag added to the N-terminus of SEQ ID NO: 1
T2 construct: also called mutant CALR protein (antigen of the BLItz measurement); not shown: Fc region and His-tag at the N-terminus
T2 chain: RRMMRTKMRMRRM

B1: Antibody 114 (bispecific antibody)
chain 1: DIQMTQSPSSLSASVGDRVTITCLASEDIYSYLAWYQQKPGKAPKLLIFAANRLQSGVPSRFSGSGSGTDFTLTISSLQPEDFATYYCLQGSKFPYTFGPGTKVDIKGGGGSGGGGSGGGGSQVQLVQSGAEVKKPGSSVKVSCKASGYTFTRNFIHWIRQAPGQGLEWIGWIFPGDADTEYNQKFSGRATITADKSTSTAYMELSSLRSEDTAVYYCARGNYNYEYFDYWGQGTMVTVSSGGGGSGGGGSGGGGSDKTHTCPPCPAPEAAGGPSVFLFPPKPKDTLMISRTPEVTCVVVDVSHEDPEVKFNWYVDGVEVHNAKTKPREEQYNSTYRVVSVLTVLHQDWLNGKEYKCKVSNKALPAPIEKTISKAKGQPREPQVCTLPPSREEMTKNQVSLSCAVKGFYPSDIAVEWESNGQPENNYKTTPPVLDSDGSFFLVSKLTVDKSRWQQGNVFSCSVMHEALHNHYTQKSLSLSPGK
chain 2: not shown
B2: Antibody 110 (bispecific antibody)
chain 1: not shown
chain 2: DIQMTQSPSSLSASVGDRVTITCLASEDIYSYLAWYQQKPGKAPKLLIFAANRLQSGVPSRFSGSGSGTDFTLTISSLQPEDFATYYCLQGSKFPYTFGPGTKVDIKRTVAAPSVFIFPPSDEQLKSGTASVVCLLNNFYPREAKVQWKVDNALQSGNSQESVTEQDSKDSTYSLSSTLTLSKADYEKHKVYACEVTHQGLSSPVTKSFNRGEC
chain 3: DKTHTCPPCPAPEAAGGPSVFLFPPKPKDTLMISRTPEVTCVVVDVSHEDPEVKFNWYVDGVEVHNAKTKPREEQYNSTYRVVSVLTVLHQDWLNGKEYKCKVSNKALPAPIEKTISKAKGQPREPQVCTLPPSREEMTKNQVSLSCAVKGFYPSDIAVEWESNGQPENNYKTTPPVLDSDGSFFLVSKLTVDKSRWQQGNVFSCSVMHEALHNHYTQKSLSLSPGK
B3: Antibody 109 (bispecific antibody)
chain 1: not shown
chain 2: B2 chain 2
chain 3: B2 chain 3

The binders below were run against T1, Ins 5 type mutant CALR protein on … (assay: cell-based or functional assay).
In the case of B1, the “EC50 of cytotoxic activity (pM)” value is reported as 790 pM. With B2 the “EC50 of cytotoxic activity (pM)” value was 2540 pM. With B3 the “EC50 of cytotoxic activity (pM)” value was 3800 pM.

Biological target: T2, protein having an Fc region and a …
Test: BLItz biolayer interferometry, Fc/His-SEQ ID NO: 1 protein on the biosensor
How it was run: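 The Fc/His-tagged protein was loaded at 0.1 mg/mL onto Anti-Penta-HIS or Protein A biosensors. Antibodies were run at 500, 100 and 50 nM by biolayer interferometry, and the dissociation constant was derived from these binding curves.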
For B1, the Kd was 6.06 nM. For B2, the Kd was 5.33 nM. B3 showed a Kd of 9.91 nM.
